According to patent US10428320B2, “Crystal structure of Staphylococcus aureus Autolysin E, method of producing the crystal and its use in screening methods” (J. Stefan Institute, priority 2015, dated 2019):
“Also recorded” adds a separate entry of the source.

What was measured:
[1] = Digestion of synthetic hexa-NAG substrate, products analyzed by mass spectroscopy; type: biochemical; settings: mass spectroscopy of degradation products
Excerpt: (§1) • AtlE is 259 amino acid long protein encoded by the SAV2307 gene loci in the genome of S. aureus strain Mu50. The truncated sequences of glucosaminidase domains of AtlE, lacking the first 34 residues and glu AtlA from S1012 onwards, include additional four amino acids (SAAA, i.e. Ser-Ala-Ala-Ala) that belong to the recognition site of TEV protease. The nucleotide sequences were amplified from the genomic DNA of S. aureus Mu50 using KOD Hot Start Polymerase and cloned into pMCSG 7 plasmid in the frame with N-terminal His-Tag as described [Eschenfeldt et al., 2009]. The mutants were prepared by the overlap extension method [Ho et al., 1989]. The proteins were expressed in BL21(DE3) E. coli expression strain grown in YZM5052 auto induction medium. To facilitate the expression of proteins in soluble form, the cells were initially grown at 37° C. When optical density (OD) measured at 600 nm reached the value of 1, the cells were transferred to 25° C. After 16 hours the cells were pelleted by centrifugation (15 minutes at 7000× g), re-suspended in the buffer A ([…] Tris, 0.4 M NaCl, pH 7.5) supplemented with 1 mg/ml of lysozyme, and frozen and disrupted by the freezing thawing cycles and sonication. The proteins were purified from the cell lysate on AKTAxpress FPLC system (GE Healthcare) using two-step purification protocol. […] The degradation products were analyzed by mass spectroscopy. […]

[2] = Digestion of synthetic tetrasaccharide substrate, products analyzed by mass spectroscopy; type: biochemical; settings: mass spectroscopy of degradation products
Excerpt: as §1

[3] = tested on: S. aureus purified peptidoglycan; test: Degradation of Remazol Brilliant Blue labeled S. aureus peptidoglycan (cell wall substrate), colorimetric; type: biochemical, Staphylococcus aureus; settings: mutants in comparison with the native enzyme
Excerpt: • AtlE is 259 amino acid long protein encoded by the SAV2307 gene loci in the genome of S. aureus strain Mu50. The truncated sequences of glucosaminidase domains of AtlE, lacking the first 34 residues and glu AtlA from S1012 onwards, include additional four amino acids (SAAA, i.e. Ser-Ala-Ala-Ala) that belong to the recognition site of TEV protease. The nucleotide sequences were amplified from the genomic DNA of S. aureus Mu50 using KOD Hot Start Polymerase and cloned into pMCSG 7 plasmid in the frame with N-terminal His-Tag as described [Eschenfeldt et al., 2009]. The mutants were prepared by the overlap extension method [Ho et al., 1989]. The proteins were expressed in BL21(DE3) E. coli expression strain grown in YZM5052 auto induction medium. To facilitate the expression of proteins in soluble form, the cells were initially grown at 37° C. When optical density (OD) measured at 600 nm reached the value of 1, the cells were transferred to 25° C. After 16 hours the cells were pelleted by centrifugation (15 minutes at 7000× g), re-suspended in the buffer A ([…] Tris, 0.4 M NaCl, pH 7.5) supplemented with 1 mg/ml of lysozyme, and frozen and disrupted by the freezing thawing cycles and sonication. The proteins were purified from the cell lysate on AKTAxpress FPLC system (GE Healthcare) using two-step purification protocol. The first purification step was Ni^2+-affinity chromatography on HiTrap IMAC FF column (GE Healthcare) equilibrated in buffer A with 10 mM imidazole. […] 2. […] The degradation products were analyzed by mass spectroscopy. A single cleavage between the central NAG-NAM residues should indicate the classic N-acetyl-glucosaminidase activity by generating the NAM-NAG and NAM-NAGred disaccharides, whereas NAMred and NAG-NAM-NAGred would indicate the muraminidase activity. […] 3. Isolation of S. aureus Peptidoglycan • S. aureus cells were grown overnight in Brain Hearth Infusion Broth (BHI) (37° C., 250 rpm) pelleted by centrifugation (15 minutes at 6000× g), washed three times with the 30 mM Tris, 0.4 M NaCl buffer and then re-suspended in the same buffer. After heat inactivation, the insoluble pellet was re-suspended in 4% SDS and incubated 30 minutes at 80° C. After 30 minutes of centrifugation at 40,000× g, the pellet was re-suspended and washed six times in water. Proteins that remained associated with the peptidoglycan were digested overnight by incubation with trypsin (1 mg/ml) in 30 mM Tris, 0.4 M NaCl, 10 mM MgCl2, pH 7.5 buffer. After pelleting (30 minutes at 40000× g) peptidoglycan was treated overnight with 5 ml 40% aqueous hydrogen fluoride to remove teichoic acid, pelleted again (30 minutes at 40000× g) and washed extensively with water. Saturated suspension of the pure peptidoglycan solution in water was stored at −20° C. 4. Biochemical Peptidoglycan Degradation and Labeling with Remazol Brilliant Blue • For the colorimetric assays, peptidoglycan was labeled with Remazol Brilliant Blue as described [Odintsov et al., 2004]. In short, 50 ul of water suspension of Remazol Brilliant Blue labeled peptidoglycan was mixed with 10 ul of 1 M buffer solutions at pH of […] of 4 M NaCl, different amounts of enzymes and filled with water to the final volume […]. The final concentration of buffer and NaCl in the reaction mixture was therefore 100 mM.

Molecule	activity against the cell wall substrate (S. aureus peptidoglycan) [3]	also measured
AtlE: recombinant glucosaminidase domain of Autolysin E of S. aureus Mu50, encoded by SAV2307 (protein) SAAANDVNYSFDEAVSMQQGKGIVQTKEEDGKFVEANNNEIAKAMTISHKDNDMKYMDITEKVPMSESEVNQLLKGKGILENRGKVFLEAQEKYEVNVIYLVSHALVETGNGKSELAKGIKDGKKRYYNFFGIGAFDSSAVRSGKSYAEKEQWTSPDKAIIGGAKFIRNEYFENNQLNLYQMRWNPENPAQHQYASDIRWADKIAKLMDKSYKQFGIKKDDIRQTYYK	–	cleavage of (NAG)6 [1]: not degraded at all; also recorded: cannot; digestion products / specificity on (NAM-NAG)2red [2]: only NAM-NAGred with Mw of 499.21 Da was found
E138A (protein) MKKNFKLRISTLLLIVILVVFAVLLIVNETKLFKNDVNYSFDEAVSMQQGKGIVQTKEEDGKFVEANNNEIAKAMTISHKDNDMKYMDITEKVPMSESEVNQLLKGKGILENRGKVFLEAQEKYEVNVIYLVSHALVATGNGKSELAKGIKDGKKRYYNFFGIGAFDSSAVRSGKSYAEKEQWTSPDKAIIGGAKFIRNEYFENNQLNLYQMRWNPENPAQHQYASDIRWADKIAKLMDKSYKQFGIKKDDIRQTYYK	abolished activity	activity against the cell wall substrate (S. aureus peptidoglycan) ([3]; listed as E138): zero activity
Y201A (protein) MKKNFKLRISTLLLIVILVVFAVLLIVNETKLFKNDVNYSFDEAVSMQQGKGIVQTKEEDGKFVEANNNEIAKAMTISHKDNDMKYMDITEKVPMSESEVNQLLKGKGILENRGKVFLEAQEKYEVNVIYLVSHALVETGNGKSELAKGIKDGKKRYYNFFGIGAFDSSAVRSGKSYAEKEQWTSPDKAIIGGAKFIRNEAFENNQLNLYQMRWNPENPAQHQYASDIRWADKIAKLMDKSYKQFGIKKDDIRQTYYK	completely inactive	activity against the cell wall substrate (S. aureus peptidoglycan) ([3]; listed as Y201): zero activity; also recorded: abolished the enzymatic activity
D227A (protein) MKKNFKLRISTLLLIVILVVFAVLLIVNETKLFKNDVNYSFDEAVSMQQGKGIVQTKEEDGKFVEANNNEIAKAMTISHKDNDMKYMDITEKVPMSESEVNQLLKGKGILENRGKVFLEAQEKYEVNVIYLVSHALVETGNGKSELAKGIKDGKKRYYNFFGIGAFDSSAVRSGKSYAEKEQWTSPDKAIIGGAKFIRNEYFENNQLNLYQMRWNPENPAQHQYASAIRWADKIAKLMDKSYKQFGIKKDDIRQTYYK	halved activity	–
D167A (protein) MKKNFKLRISTLLLIVILVVFAVLLIVNETKLFKNDVNYSFDEAVSMQQGKGIVQTKEEDGKFVEANNNEIAKAMTISHKDNDMKYMDITEKVPMSESEVNQLLKGKGILENRGKVFLEAQEKYEVNVIYLVSHALVETGNGKSELAKGIKDGKKRYYNFFGIGAFASSAVRSGKSYAEKEQWTSPDKAIIGGAKFIRNEYFENNQLNLYQMRWNPENPAQHQYASDIRWADKIAKLMDKSYKQFGIKKDDIRQTYYK	halved activity	–
E145A (protein) MKKNFKLRISTLLLIVILVVFAVLLIVNETKLFKNDVNYSFDEAVSMQQGKGIVQTKEEDGKFVEANNNEIAKAMTISHKDNDMKYMDITEKVPMSESEVNQLLKGKGILENRGKVFLEAQEKYEVNVIYLVSHALVETGNGKSALAKGIKDGKKRYYNFFGIGAFDSSAVRSGKSYAEKEQWTSPDKAIIGGAKFIRNEYFENNQLNLYQMRWNPENPAQHQYASDIRWADKIAKLMDKSYKQFGIKKDDIRQTYYK	activity of native enzyme; also recorded: activity equivalent to the native enzyme	–
